In publication PMC9630320, “Interaction between DLC-1 and SAO-1 facilitates CED-4 translocation during apoptosis in the Caenorhabditis elegans germline” (Cell Death Discovery, 2022):
Where a chain is given by its changes, count along the chain named. Numbers in names are those of the source. Blank lines part the entries; values can stand above or below the molecule they belong to.

Legend:
SAO-1::RFP (C. elegans) = assay: FRET or BRET; fluorescence lifetime imaging (FLIM) of the GFP donor in live adult worms; TCSPC
[1] = target: SAO-1C1(182-205) peptide (crystal) (C. elegans); assay: crystal structure; sitting drop vapor diffusion at 16 °C; 0.2 M potassium chloride, 0.05 M HEPES pH 7.5, 35% pentaerythritol propoxylate; 2.4 Å
[2] = target: purified C-terminal region (residues 182–226) of SAO-1 (ITC) (C. elegans); assay: ITC; 25 °C; 50 mM Tris-Cl pH 7.5, 100 mM NaCl; 400 μM DLC-1 injected into 40 μM SAO-1; 13 titrations; one-site binding model
Trx-His6-DLC-1, Q22799 = target: T1, Trx-His6-DLC-1, Q22799; assay: pull-down (GST pull-down, Western blot with His antibody, band quantification); settings: chain shown with the change;; parent: est. 1.0; read off a plot
T1 chain: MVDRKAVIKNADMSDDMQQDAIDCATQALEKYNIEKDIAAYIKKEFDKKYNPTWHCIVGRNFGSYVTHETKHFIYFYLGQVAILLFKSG

[3] = target: the molecule itself; assay: crystal structure; sitting drop vapor diffusion at 16 °C; 0.2 M potassium chloride, 0.05 M HEPES pH 7.5, 35% pentaerythritol propoxylate; 2.4 Å

Molecule: DLC-1::GFP (from UniProt Q22799 1-89) (natural protein)
GFP mean fluorescence lifetime (τ) with SAO-1::RFP (SAO-1::RFP (C. elegans)): 2.85 ns

B3: full-length DLC-1 (ITC and crystallography) (natural protein, C. elegans, UniProt Q22799 1-89, looked up)
chain: T1 chain
notes: dynein light chain 1 (DLC-1), C. elegans; Same construct as m1; Forms dimers in the crystal
binding result [3]: binds

The remaining lines, values ahead:

stoichiometry N (DLC-1 per SAO-1) [1]: 2
Kd [2]: 500 nM
stoichiometry N (DLC-1 per SAO-1) [2]: 2
Molecule: full-length DLC-1 (ITC and crystallography) (from UniProt Q22799 1-89) (natural protein)

ratio to parent (Trx-His6-DLC-1, Q22799): 0.57
B1: GST-SAO-1 V187A; T189A (protein)
chain: MHKNGNNGPVIDTKWHYLGPDSEKYGPYMSKDMLFWLQAGYFNDGLQLKTENEPNYHTLGEWSQLLGTHPFSMPVHSLDATIAQMNSMRPHGAMMMVPPGLQNQFQPPMPMRFPPFLPMPLLHQMNQNGPPMGAQMHSQPPSEPIDAGSLSHTPDSENEFQGHGRKPHHHQQILAHQHIPQMQHANAAADQVVMKSVECQTEPVEISKEQASRVLSELLGQMVIIN

ratio to parent (Trx-His6-DLC-1, Q22799): 0.15
B2: GST-SAO-1 C199A; Q200A; T201A (protein)
chain: B1 chain with A187V, A189T, C199A, Q200A, T201A
